This note sets out measurements from patent US20250243292A1 (published 2025).

B1: PP6368 (antibody, V domains shown)
VH: EVKFEESGGGLVQPGGSIKLSCAASGVTFSEAWMDWVRQSPEKGLEWVAEIRDKPNSYVTYYAESVKGRFTISRDDSKSRVYLQMNNLRTEDTGIYYCTGAMDYWGQGTSVTVSS
VL: DIVMTQTPLSLSVTIGQPASISCKSSQSLLYSNGKTYLNWLQQRPGQSPKRLIYQVSKLDPGIPDRFSGSGSETDFTLKISRVEAEDLGIYYCMQGTYLPWTFGGGTKLEIKR
B2: PP6372 (antibody, V domains shown)
VH: B1 VH with P55Q, S57E
VL: B1 VL with T97S, Y98S
B3: PP6371 (antibody, V domains shown)
VH: B1 VH with S40T, K54R, P55E, N56T, S57K
VL: B1 VL with Y98S
B4: PP6369 (antibody, V domains shown)
VH: B1 VH with T28P, E31G, P55T, N56K, S57N
VL: B1 VL
B5: PP6226 (antibody, V domains shown)
VH: B1 VH with P55T, N56K, S57N
VL: B1 VL with M94L, Y98S, L99Y
B6: PP6236 (antibody, V domains shown)
VH: B1 VH with K54N, P55T, N56T, S57N
VL: B1 VL with T97A, Y98S
B7: PP6235 (antibody, V domains shown)
VH: B1 VH with T28A, E31G, P55T, N56K, S57N, I95V
VL: B1 VL with T97A, Y98S
B8: PP6370 (antibody, V domains shown)
VH: B1 VH with P55T, N56K, S57N, S79G
VL: B1 VL
B9: PP6231 (antibody, V domains shown)
VH: B1 VH with K54N, P55T, N56T, S57N
VL: B1 VL with M94L, Y98S, L99Y
B10: PP6232 (antibody, V domains shown)
VH: B1 VH with P55T, N56K, S57N
VL: B1 VL with I63T, Y98S, L99T
B11: PP6230 (antibody, V domains shown)
VH: B1 VH with P55S, N56T, S57N
VL: B1 VL with M94L, Y98S, L99Y
B12: PP6228 (antibody, V domains shown)
VH: B1 VH with T28A, E31G, P55T, N56K, S57N, I95V
VL: B1 VL with M94L, Y98S, L99Y
B13: PP6233 (antibody, V domains shown)
VH: B1 VH with P55T, N56K, S57N
VL: B1 VL with T97A, Y98S
B14: PP6234 (antibody, V domains shown)
VH: B1 VH with P55T, N56K, S57N
VL: B1 VL with I63T, T97A, Y98S, L99V
B15: PP6387 (antibody, V domains shown)
VH: B1 VH with P55T, N56K, S57N, S79G
VL: B1 VL with T97S, Y98S
B16: PP6388 (antibody, V domains shown)
VH: B1 VH with S40T, K54R, P55E, N56T, S57K
VL: B1 VL
B17: PP6373 (antibody, V domains shown)
VH: B1 VH
VL: B1 VL with T97S, Y98S

Changes are numbered by the printed parent chain.

The target of the first assay is T1, CD24-GST fusion protein.
T1 chain: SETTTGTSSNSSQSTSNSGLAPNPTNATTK
The experiment in a line: competitive ELISA. Background: ELISA stands for enzyme-linked immunosorbent assay.
With B1, the IC50 (commonly the point on the concentration scale where inhibition reaches its midpoint) stood at 0.0299 µg/mL.

In turn, B2 registered an IC50 of 0.0269 µg/mL.

Consider B3, for which the IC50 is 0.0345 µg/mL.

With B4, the IC50 was found to be 0.0611 µg/mL.

As for B5, the IC50 was 0.0856 µg/mL.

B6: the IC50 worked out at 0.0336 µg/mL.

Consider B7, for which the IC50 is 0.0419 µg/mL.

Consider B8, for which the IC50 amounted to 0.0642 µg/mL.

The target in a further assay is T1, CD24-GST fusion protein. The experiment in a line: competitive ELISA. The source holds these as a separate data set.
In turn, B9 registered an IC50 of 0.0768 µg/mL.

Take B10: the IC50 was determined as 0.0713 µg/mL.

For B11, the IC50 is 0.0589 µg/mL.

B5 returned an IC50 of 0.0814 µg/mL.

Regarding B12, the IC50 stood at 0.0888 µg/mL.

For the molecule B13, the IC50 amounted to 0.0372 µg/mL.

B7 registered an IC50 of 0.0411 µg/mL.

In turn, B14 yielded an IC50 of 0.0426 µg/mL.

The next assay concerns the target T1, CD24-GST fusion protein. Nature of the assay: competitive ELISA. The source holds these as a separate data set.
B2: the IC50 was 0.0268 µg/mL.

Molecule B15 gave an IC50 of 0.0284 µg/mL.

Regarding B16, the IC50 was 0.0249 µg/mL.

B5: the IC50 was found to be 0.0834 µg/mL.

The molecule B7 displayed an IC50 of 0.0415 µg/mL.

B17 gave a half-maximal inhibitory concentration (IC50) of 0.0207 µg/mL.
